In a protein production outcome set (Wang et al. 2014):

Assay: label from the status in PepcDB records

## MDESAALRAFQDALRTQRPEFGQFFLARLLGLDISYPDGQCLIVFEPQDFLFNPQGSLHGGIIATVMDISMGHLLNHVQGAGLTLEMKTQYLKAVRQGTVYCRGEFLQRGRSVSFLKSTLTDAQGEPLAMATSTWKALSPARAPGVDAAAR
  protein production: failed

## MDFAYSPKVQELRERVSAFMEAHVYPAEAVFERQVAEGDRWQPTAIMEELKAKAKAEGLWNLFLPESEYGAGLANHEYAPLAEIMGRSLIGPEPFNCAAPDTGNMEVLVRYGSEEQKRTWLEPLLSGEIRSAFAMTEPGVASSDATNMEARAERQGDDWVINGRKWWTSGACDPRCKILIFMGLTNPDAPRHQQHSMILVPVDTPGVKILRPLPVFGYDDAPHGHAEVLFENVRVPYENVILGEGRGFEIAQGRLGPGRIHHCMRSIGMAERALELMCKRAVSRTAFGKPLARLGGNIDHIADSRMEINMARLLTLQAAYMMDTVGNKIAQSEIAQIKVVAPNVALKVIDRAIQMHGGAGVSNDFPLAYWYAMQRTLRLADGPDEVHRAAIGKFELGKYVPREML
  protein production: failed

## MDFGKPNQVTVNYLDENKTPIAPSLYLSGLFNEAYNVPMKKIKGYTLLKYDSEILGVFTESPQTINIIYQKKAPEQALEHHHHHH
  protein production: failed

## MDFGSFLKAPEIKVKIVTYRDIFQDKAMIENRFGEEYRDRSAVIKMDSADLKQLNVKKGETVILKNSFGTVVVKAEESGYEPSHRGIAYMPKSPWSNMLVSDETGGTGIPKFKDISVTVTSAKGQKLTELGL
  protein production: not failed

## MDFVEFWSQLIRNVRWRRACVLALIVLTLYLASSMMSIILLTFIFTFLVTRLVRAVRRWVKIPPTIIVLVVYALVILGIYFAVSIYLPQLIKQTFLTFESVYRFYQNPSHDTNQVLTWVTSYFQESDILKQLKGGISVVFQYITNIGNMGLTFFLSFILSFFFTIEDHQMRVFTKRFLTSTFGWFFQDVHFFAKKFVNSFGVVLEAQFLIAIVNTVITVTFMAILKMPQLISLGLMIFILSLIPVAGVIISVVPLSLIAYSVGGLRYVVYMLLMILVVHALEAYVLNPKFMSSRTELPIFYTFVVLLVSERLFGVWGLIVGVPIFNFILDIIGVKPVHRPRPNINLKKTITFHPDSENKR
  protein production: failed

## MDFVIRRATAEEYDTLGEITAQAYLRDGLLDFGESDSYLDELRDVAKRAAAAEVLVAVADDAVLGGATFVPSGGPMADIARPGEAEIRMLAVAREARGRGAGEALVRACADRARAVPGCTGVVLSTQAAMRTAHRLYERLGFVRTPDRDWNPLPELDDIMLLTYELTL
  protein production: failed

## MDGEAFEISLLDGEEDRFGGTVVNLMEVESMTIGDFDSKLDVSLKAWKDQGKKGIWIKLPSELSSLVDTAIKKGFTYHHAENEYVMLTFWLPEPPSTLPCNASHRIGIGAFVLNKNGEMLVVQENSGYFKDKNVWKVPTGTIKEGESIWAGAVREVKEETDIDAEFVEVLSFMESHQAVWQRKTDIFFVCELEARTFEIQKQDSEIHAAKWMPVEEYVNQPYHNKEGNEMFKLIANICLKRSREKYTGFVLTTNSAKKSLYCSVDHANLLKETADQASTSLSD
  protein production: failed

## MDGIFAGIICNQANRCLTWTSQQLFSEKISGAEGTKLDDEFLDMERKIDVTNKVVAEILSKTTEYLQPNPAYRAKLGMLNTVSKIRGQVKTTGYPQTEGLLGDCMLKYGKELGEDSTFGNALIEVGESMKLMAEVKDSLDINVKQTFIDPLQLLQDKDLKEIGHHLKKLEGRRLDYDYKKKRVGKIPDEEVRQAVEKFEESKELAERSMFNFLENDVEQVSQLAVFIEAALDYHRQSTEILQELQSKLQMRISAASSVPRREYKPRPVKRSSSELNGVSTTSVVKTTGSNIPMDQPCCRGLYDFEPENQGELGFKEGDIITLTNQIDENWYEGMIHGESGFFPINYVEVIVPLPQ
  protein production: not failed

## MDGKRVWLSDDELTRFIEQAETPHQRLAFLLAGRVGLRRSEIIEVCPQDLVDGPTGDHIRVWESYAKRDKYREPPVPQEVVTIAETLAYQQDDDEPLLDVAGSTVYRWVRRAADELEEETGDRGWQYLDVHDLRRTWGTYLLEQGVIPSVVMSFGGWEDWDTFRKHYLGLEHHHHHH
  protein production: failed

## MDGLFEFCQLSTGGSVAGAVKLNRQQTDMAVNWAGGLHHAKKYEASGFCYVNDIVLAILELLKYHQRVLYIDIDIHHGDGVEEAFYTTDRVMTVSFHKYGEYFPGTGDLRDIGAGKGKYYAVNFPMCDGIDDESYGQIFKPIISKVMEMYQPSAVVLQCGADSLSGDRLGCFNLTVKGHAKCVEVVKTFNLPLLMLGGGGYTIRNVARCWTYETAVALDCEIPNELPYNDYFEYFGPDFKLHISPSNMTNQNTPEYMEKIKQRLFENLRMLPHAPGVQMQAIPEDAVHEDSGDEDGEDPDKRISIRASDKRIACDLEHHHHHH
  protein production: not failed

## MDGSPARPVPLVPDAAPAAPGRGRLAALTLLTLGFFAANSLLARAALRPGLADPATFTAIRLASGAAALGGLALASRRARPRGGSAGSALALFAYAAAFSLAYRRIDAGPGAFLLFFAVQASMIGWSVLRGARPTRRQWAGLAVALAGLGWLTLPGAHAPDARGAALMLAAGVAWGAYTLRGRGVRDPAGATAANFALAVPLALCLVIASAGTLHLTARGAALAAASGAVASGVGYVLWYTVVPALGAARAAAVQLAVPAMVPLAAAGLLGEAITPRLLAAGTAILAGVALAIAPAARGGAFTRALSSRAGSAVERPPR
  protein production: failed

## MDHLKHLQQLQNIERIVLSGIVLANHKIEEVHSVLEPSDFYYPPNGLFFEIALKLHEEDCPIDENFIRQKMPKDKQIKEEDLVAIFAASPIDNIEAYVEEIKNASIKRKLFGLANTIREQALESAQKSSDILGAVEREVYALLNGSTIEGFRNIKEVLESAMDLITENQRKGSLEVTGIPTGFVQLDNYTSGFNKGSLVIIGARPSMGKTSLMMNMVLSALNDDRGVAVFSLEMSAEQLALRALSDLTSINMHDLESGRLDDDQWENLAKCFDHLSQKKLFFYDKSYVRIEQIRLQLRKLKSQHKELGIAFIDYLQLMSGSKATKERHEQIAEISRELKTLARELEIPIIALVQLNRSLENRDDKRPILSDIKDSGGIEQDADIVLFLYRGYIYQMRAEDNKIDKLKKEGKIEEAQELYLKVNEERRIHKQNGSIEEAEIIVAKNRNGATGTVYTRFNAPFTRYEDMPIDSHLEEGQETKVDYDIVTT
  protein production: not failed

## MDHLLSGLATRLGQGPFVADRTGSYHLRIDGQSVLLLRQGDDLLLESPLEHAPLDPQRDQQGLLRALLSRVASWSRRYPQAIVLDADGRLLLQARLGLDGLDPERLERALAAQVGLLEALAPELEPLPRGLPPQAPVWRP
  protein production: failed

## MDHQLSQHDIFISQDGQLQLTVAVDTETVWLTQAEICVLFDRERSVITKHINNVFKEGELERDSVCAIFARTADDGKTYQTQYFNLDVIISVGYRVKSKRGVQFRQWATNTLKQHLLQGYTLNQQRLVQRGIEFNQALALLSKTLTNQALINPDGQAVVNVIAEYARSWSLLQGYDEQSLTEITHKQQQMQPLALDEVLAAIAALKTNLIAKGEATDLFAQLRGNGLASSIATIEQGFGGEWFYPNVASRAAHLLYFIIKNHPFADGNKRTGSFLFLWYLQQNQHLLAKPVSEQINDTTLVALALLVAESLPDQKELMIRLIEHFILLKDSELEHHHHHH
  protein production: not failed

## MDIAELINHPELLLLVLAPLFFVCILLEWYLGDRRQKLPVSARYHAKEVLCNFSLAAMHQGTDILAGLLIAKLYLAIFGWKLFDIQMGPFTFVLLMVAQDFCYYWFHRASHRIRWMWAAHVVHHSSENMNFSTAFRQSLMYPFAGMWVFWLPLVILGFDPNWVVFVVLLSLGLQFFVHTQAVRKLGPLEWLFNTPSHHRVHHGRNPQYIDKNYAGILIIWDKLFGTFVPEEETVIYGITKPVNSFNPLKVTFSEWHDMFREVTTKGLSLSKRLGILFAPPASYQKDD
  protein production: failed

## MDIELPGFDIERELGEGAMATVYLATQRSLQRKVALKVMAAALAADPSFAERFLREGRTLARLSHPNTVTIHDIGNVGSCYYMAMEYLPNGTLKERIQQGLDPEQGLAYVRQVAAALGYAHSQGLVHRDVKPANILFRADGTAVLSDFGIAKSIEDNTQFTQVGFAVGTPSYMSPEQARGQEIDGRADLYALGVVLYEILTGKLPYNGKDSLSTALAHLTEPLPELPIEQGRYQDILRQLLAKDPAERFPTAGALIAALDRLAPSALEATQIRPLATPQGSPRASNPPPAEPAPLPPADLGGLQPVSIQLPPVTPSAGGATPPPPPPSQAAKPPSPPPPPLPPAKPRAGGSRTPLIAAAAAAVLLAIGGGAWWLLGSGDAPSAADPAPLGQTPADKPQQQTPVADAEQDGGERPLLMPGKKTLFQRVLTKPGAAISAEAGGPPRAGAVPAFSVLYVYARKQVGGSPWLRVGASSNGEGDGWLPASAVSDWKQSLVLKFTERSGRAPVMFLNSAEQVERLLGDTRAARDTLTQAVDHKGDPQVVAVEPNDRAIPQDQFYLLPIFDSKESFDADGQPAQLLEVASIDPGGSAAAPQAPGQAGQGGASGAASDTFRTGIVLVVDTSVSMQPYIDRVREVIDGLQRQIGERGDLDKVSFGLVGFRNNTDKTPGLEYVSKTLVPLQPGNDAQRFAELSSQVRATDVSSHSFNEDAFAGIMQAVDEMDWSPYAGRVVLLVTDAGALRKNDPLGRTQMNEAEVRQAALRKGVKIYALHLRTPAGKNNHGYAEQQYRSLTADANPKIADLYIPVAGGEVNAFGNTVKEIGTVFADLVHDAGNRKPQAPRFDAAPSVASKSAAIGYAMQMEFLGRRDPVRAPQVVTAWTADRDLTNPALPAFQVCVLLSKLQLNELQQSLKLIVDAAKRTQTSPKDFFQEIASASAYMSRDPAQLVKGSNLAQSGVLGEYLEGLPYRSKSLNMTQDLWLSLSVAEQQDFIDELESKIRLYETFHNDVANWVRFGDADAGDALYRVPLSTLP
  protein production: failed

## MDIFLVIGIITGLLAVVVGMIVKGANVAVLLNPAAAIIIIVGTSAAVMNSFPKNEFTNIPKVFKSLMRGKSKEDPVEIINQIVDMAQETRKNGLLSLEGKIHSIDNEFLKTGLEMVVDGVDPQHIAEVLEMEIESTEERHRGGALIFTTAGGAAPTLGVLGAVVGLIGALGNLNDTEKLGHMIAGAFVATLYGIFFGYVICHPFASRLKRKSLEEINVMRIITEGILDIQSGNNPKSIEKKLIGTLSPKQRQSIQSKGE
  protein production: failed

## MDIFLVVLVLLTIIAISNIVNRFIPFIPVPLIQVALGILAASFPQGLHFELNTELFFVLFIAPLLFNDGKRTPRAELWNLRAPILLLALGLVFATVIVGGYTIHWMIPAIPLAAAFGLAAILSPTDVVAVSALSGRVKMPKGILRLLEGEGLMNDASGLVAFKFAIAAAVTGAFSLAQAAVSFVFISLGGLLCGVVISFLIIRFRLFLRRLGMQDVTMHMLIQILTPFVIYLAAEEIGVSGILAVVAGGITHAVEQDRLESTMIKLQIVSSSTWNIILFILNGLVFVILGTQIPDVISVIFNDTAISNMKVIGYILVITFTLMLLRFLWVLFFWNGKWFFNKDQNIYKPGLRSTLLISISGVRGAVTLAGSFSIPYFLEDGTPFPERNLILFLAAGVILCTLVIATVVLPILTEKEEEDEERNKKLLTARRKLIKTALQTIKEDMNETNKTASLAVIAEYNEKMKNLRFQQYTSSNRIKKHERKVRAQGVKAEQEALMKMLERGDIPEETANVLQERFNELEILYANPFKVGLSKTRLKRLMYWIFFGEHKKPEMSILNEAGLIRATRVKTAKAAIEYLEKHKTDEHKEVFLSVITFYKQLIFRLEHSHHELKSSAHFENQKLEVKLKAVQAIRNEIQTLFEEREISRDISHELRQYINDVEAAMLEGGE
  protein production: failed
